Measurements reported in the DeepSol protein solubility set.

Assay: soluble on expression in E. coli; label from the status in PepcDB or PDB records
In the case of “MGSDKIHHHHHHMDDFDTPVTGNAYGNNTIKEQRTISIANLKEKYSSVISANQFQTVTEETRISGVVVGDDESGNIYKQLIVADETGAIVVGINSTGIYANCPVGQKVVIDCENLNVGGYGMQAQIGTTYKGAIGRMDLAVWLDHVRVINKPQLWYDELIPMELTGAQLKAYDKDLAPVLVMFKDVTIKEADGTATFAPEDLKDGGNGVNRTLVLDDNSTLTFRTSTYANFSTEVMPTGKINVIGILSRYNSTWQIVARTYSDIQRNN”, the “soluble on expression in E. coli” value is reported as “not soluble”. For “MSLTKDLLSELIQKHRSFNLSYSAYKQLYEGDHAILQQKQKEQYKPDNRLVVNFAKYIVDTFNGYFIGVPVQTSHENKQVSNYLELLDGYNDQDDNNAELSKICSIYGHGYELVFNDENAEVGITYLTPLEGFIVYDDSIRQKPLFAVRYFYNKDGVLEGSYSDASKITYFKDGEKDLEIGESDPHPFDGVPMIEYVENEERQSLLASVVTLINAFNKAISEKANDVEYFADAYLKILGAELDDETLKSLRDTRIINLKDTDAQQLTVEFLQKPDADATQEHLLDRLENLIFRTAMVANISDESFGTASGIALRYRLQAMDNLAKTKERKFMSGMNRRYKLIASYPTSKIGPKDWIGIKYKFTRNLPANLLEESQIAGNLAGIVSEETQVGVLSIVENPQKEIEKKNSDRPTLISRKAGGLNGQDTTTVLEGHHHHHH”, the “soluble on expression in E. coli” value was “not soluble”. In the case of “MAAPAALKRISATVWELPVSYKKGMLVPARIIATEKLINAMDAGVFEQVSNVACLPGIQKYAFCMPDGHWGYGFPIGGLAAMDPETGVISPGGIGFDINCGMRLVLTTLTYEEVKPRLRELVDALFYRVPAGVGSHGFVRLSHDEFCRVAEQGSSWCLKHGYAWPEDLEMTEEHGCFTGADATKVSQRAVDRGYNQIGTLGSGNHYLEVQVARPENIFDEDTARAFGITVPNQVVIMFHCGSRGFGHQVATDYLQLFLSVMEKKYGIRTNDRELACAPFRSREGQDYFAAMKCAVNMAFANRQVILHRIREVFSDVFGRDPGDLGMDMVYDVAHNTAKLETHLVDGKKRELLVHRKGATRAFGPGMEGIPARYRETGQPVIIGGSMETGSYLLAGDPGGGDTFFTTAHGSGRTMSRHQAKKLIKGQKLQRDMEERGIYVRTASWGGLAEEAGQAYKNIDDVAEATELSHLSRRVARLVPIGNVKGLEHHHHHH”, the “soluble on expression in E. coli” value is reported as “not soluble”. For “MKYMIPDEEFIRREGVPITKEEIRAVSIGKLNLNKDDVVVDVGCGSGGMTVEIAKRCKFVYAIDYLDGAIEVTKQNLAKFNIKNCQIIKGRAEDVLDKLEFNKAFIGGTKNIEKIIEILDKKKINHIVANTIVLENAAKIINEFESRGYNVDAVNVFISYAKKIPSGHMFLAKNPITIIKAVR”, the “soluble on expression in E. coli” value was “soluble”. With “MQDTLPIHFAPLQGYTEAIYRNAHDAFFGGVDTYYTPFVRLEKGNFRRRDVRGIEPENNGVPHLIPQLIASSAEKAEVILSLFIEKGYQEVDINLGCPFPLLAKRHNGSGILPYPEEVKALLSIVTRYPQISFSVKMRLGWEQPDECLALAPILNDLPLRQITMHPRLGKQGYKGEVDLQGFSAFREVCQLPLVYNGDIHNLEDIQRISTQFPSLAGIMIGRGLLANPALALEYKENRTLAPDEMRDRLKSMHKSVYNNYDVLLEGGEGQLLTKMKTFWEYLAPQTDRKVLKAIHKSTNISKYYQAVSAFFNQR” the “soluble on expression in E. coli” value was “not soluble”. With “MNEIKTSCASTDRKWSTWESIDWNKCVIAVNKLQARIVKAQKAGKHGRVKSLQWVLTHSFYAKALAVKRVTSNSGSDTAGVDKVKWSTPNARFKAIGELKRRGYKPQPLKRVNIKKSNGKLRPLGIPTMKDRAMQALYLLALEPVSETTADSNSYGFRKERSTGDAREQCFCVLAKKASPEWIMEGDIQGCFDHISHEWLLNNIPMDKVMLRKWLKCGFVFNKELFPTEEGTPQGGIISPTLANMTLDGLQTMLAEKYHKKFVTRKTTTYYPKVHLVRYADDFIITGRNKEALEEIKPLVVDFLKERGLTLSEEKTKITHIDDGFDFLGYNIRKYKGVLLIKPSQKSLKKFMQKIRGIIDSNKGSKQESLIRLLNPVITGWVNYYKNCVASDTFRKADYLIFEKLWQWATRRHPKKGKYWIADRYFTRVKNRNWCFVANFKKGKTDDRIALKRLYDTKITRYVKVKGEANPFAPEWTEYFEKRKTYKMLQSLNGRKSLLYMWERQNHLCPVCGKPIDKEHPWGTSQQTVNGKKVNNLLHDSCRRKVIQTNKM” the “soluble on expression in E. coli” value was “not soluble”. For “MKILLIGGSGNIGRAIAAELSGRHEIIAAGRHHGDVRVDIEDEQSIAAMYRQLPRLDAVAVATGGRNGHVGPLAEMNAERYRVGLDAKLMGQVNLVLRGLDKVADGGSFTLVGGAWQPQAIVPLLSNVYMANAALEGFVNAAAVELPRRLRINLVSPLLLAESEAEYGPLFRGVPLVEARQVARAYSLSIEGLEHHHHHH”, the “soluble on expression in E. coli” value was “not soluble”. For “MPKSEPRYLTIYNQLKNQITSGTLTANEQLPTELQLAKAYNVSRITSKRALTELESQGLIYRKQGSGSFVQPTDQPKTNKQLLLVLPFPTDAGLGDYASGVSLAASAHHYQAVTMDSASFFNLSAKEIHENYAGVIYLPQDLYQEAERIYQLKLAQVPVVILDKTLPALELPVVTADNFSGGQIATDHLLQLGHQQILFYAQRNNTVLPSSVYERYFGYLTALNQQHVTPVTALADLPTLNQFSTNDWLTYLADHQITAIVVENDLTAIKLMNTLRKVDPKIWQRLSIVGFDNIQAASLTYPSLTTVAQDFKGMGTKAVSLLLKTPVQPTTVRLPVQLIQRDSTQPFQPISKEK”, the “soluble on expression in E. coli” value was “not soluble”. With “MVENSELRKAGLKVTLPRVKILQMLDSAEQRHMSAEDVYKALMEAGEDVGLATVYRVLTQFEAAGLVVRHNFDGGHAVFELADSGHHDHMVCVDTGEVIEFMDAEIEKRQKEIVRERGFELVDHNLVLYVRKKK” the “soluble on expression in E. coli” value was “not soluble”. With “MKYFQEADIAVTVCDKTGKIIDMNEQSRQVNLKPGQELIGSNVLDCHPEPARSMLEEMMRQERKHVYTIEKNGRKKLIYQIPWYEKGEYMGFLELSMVIPFEMEHKIRTPKPAND” the “soluble on expression in E. coli” value was “not soluble”. For “MDVSEGGVTVSVPTASGGGEGAADDVFFNATQELNRDLTVATLAAFREREPRAASYLDAMTASGIRGVRAANAGWDVTMADVDADAVELATSNLARNGLDGEVVARDANSLLHDHDRVLDVVDIDPFGSPMPFADAAFANARNLVCVTATDTAPLCGAHFESGVRKYSATPRNTNYHAEMGLRILLGALARTAARYDVGVTPILSHVSDHYVRTYLELDHRATDANAAVEQVGHVYHCQQCLSRDHEYGLVAAPRAECPRCGGHQVLTAGPLWLGPAHEEAFAASVREQLTREMGEASQAFHLLQTIEGELHEPTHYDQHRLYSQWGEPAVGMAEFLDQLRDAGLRASRTHFGGTTFKTDGGLAEVEAAVLLEHHHHHH”, the “soluble on expression in E. coli” value was “soluble”. For “MSLGNRMKVCIYGAGAIGGYLGVQLAQSGAADVSLVARGAHLQAMKENGLKLLIEGEERVIKPNATDKPAELGVQDVIIICLKAHSITGAIDSMKPLLGSHTRIVTAVNGVPYWYFHKHGGNEFEGRTLESIDPGGRQWKELGPERGIGCIVYPATELEAPGVIRHVYGDKFPIGEPSGETTSDVENLSKVFEASGLKAPILDRIRDEIWLKLWGNVCFNPISALTHATLDVIASDPATRALSKAMMLEAQQIAETFGVKFRVDVERRIEGARKVGAHKTSMLQDLERGRPMEIDPLVTVVQEMGRMTNIPTPAIDSVLGLVIQRAKVAGLYEGHHHHHH”, the “soluble on expression in E. coli” value was “soluble”. With “MAASITAITVENLEYPAVVTSPVTGKSYFLGGAGERGLTIEGNFIKFTAIGVYLEDIAVASLAAKWKGKSSEELLETLDFYRDIISGPFEKLIRGSKIRELSGPEYSRKVMENCVAHLKSVGTYGDAEAEAMQKFAEAFKPVNFPPGASVFYRQSPDGILGLSFSPDTSIPEKEAALIENKAVSSAVLETMIGEHAVSPDLKRCLAARLPALLNEGAFKIGN” the “soluble on expression in E. coli” value was “soluble”. In the case of “MSLRDKQKIKTKLIPEKDEGEGKYRIGLYIRDSAAGIGTMTFYEPKTKKYGALGHVISDMDTKKPIVVENGEIVKSTVTSIEKGTGGNPGEKLARFSSERKTIGDINRNSPFGIFGTLHQPIQNNISDQALPVAFSTEVKKGPAEILTVIDDDKVEKFDIEIVSTTPQKFPATKGMVLKITDPRLLKETGGIVQGMSGSPIIQNGKVIGAVTHVFVNDPTSGYGVHIEWMLSEAGIDIYGKEKASEGHHHHHH”, the “soluble on expression in E. coli” value is reported as “soluble”. In the case of “MADPDSYRSSITSRPAFNRTVTSSTQNYGTPASGNRVLKIVTETHTSSVASGLSPYGQGAASTIRDDREREKKEITELNDRLASYIGKVRFLAAQNRKLEADLNVLQSRFGKSTGSVKIMYEMEITTATNVVKETGKDHEEAEKEIGKIKDQLDELRKKFEEAQKGRAEDRLKIDELLVTLSNLEAEINLLKRRIALLEEEVARLKKENFRLTSELQRVRSELDQETLLRIDNQNKVTTILEEIDFMKRGFETELKDLQAQAARDTTSENREYFKNELMNSIRDIRAEYDRFMAGNRNDLESWSQIRVQEINTQTNRQNAEINHKRDEVKRLHSQVSELKSKHAELAARNGLLEKQLEDLNYQLEDDQRSYEAALNDKDAQVRKLREECQALLVELQMLLDTKQTLDGELKVYRRMLEGNSEENGLRQLVEKVVRTSAINEEVDTETMRVVKGEHSSRTSYQRSAKGNVSIKEVSPEGKFVILENTHRDKEEPLGDWKLKRKIDGKREIVFTFPSDYILHPVQTVKIFARGNGVANPPEVLVFEGDDTFGAGANVQTILYNNSGEERATHMQRQSQQTTTS”, the “soluble on expression in E. coli” value is reported as “not soluble”. With “AIADEEEEISVVQDMAYDYSGKRLATVSIDREICIWNKKDDWQRTYQWKAHEGPLFGVSWAHPCFGNILATGSYDKRVIIWEEPEASSSYSSSSMDKSTKGWTALAHLVDARDEVRQVQFAPPHLGLLLASGSADGYVRIYTCIDEADLHQWPLLTELDMDSPVVGMSWNPSVDSIPLIVVASHKDCRVWSMDNDTRRWTDWHLFRTSESDTADLSAVAWAPHVGRSFERIALGCEDGSILLFQFPRIQQGNKTNGHEMQPICRLNHGNERIVRLQWNMVGSILASSASDRMVRLWKALPQDGTRWNCFDVVHLNE” the “soluble on expression in E. coli” value was “soluble”. For “MTDTIKIYHNPRCSKSRDTLNLLKSNGVEPEVVLYLDTPADAATVRELLRMLGMSSARELMRQKEDLYKTLHLADSELSEEALIQALVEHPKLMERPIVVANGQARIGRPPEQVLDILG”, the “soluble on expression in E. coli” value was “not soluble”. In the case of “MVDSIIFDLDGTLWDSTEEVCKVWQDVLSEHKEIELSVTKDLFRSLMGLSFEEIANRLFPNLSEEERMNLLNECSLKECDYLSENGAKLFDDIEDTLKLLSKKYKLFIVSNCQAGYIESFLKAHKLEQYFIDFECPGNTGLHKGENNKLIIERNKLINPIYVGDTQGDANSAKFVGIPFIYAKYGFGNVDVYDYFIDSFKDLLEHDILK”, the “soluble on expression in E. coli” value is reported as “not soluble”. In the case of “MALDKLLENEAQSEIERIRAEARGRAEKIVADARERAQTLLDSRQRLLENQRQAGLVRARSAADLELNAARLTASESGVTQVYQMVEDYLGNVTSAPEYGNILSRLIQEGLQAVPDAEAIEVNPAEMNVARHLVSGVEVRENPSIKGGVRVVARGGKSGVTNTLSGRLERVKADMAPQISRLLAE”, the “soluble on expression in E. coli” value is reported as “soluble”. In the case of “GSLRVKFSRSADAPAYQQGQNQLYNELNLGRREEYDVLDKRRGRD”, the “soluble on expression in E. coli” value is reported as “soluble”. In the case of “LVPRGSHMTNDTSGVLTIATTHTQARYSLPEVIKAFRELFPEVRLELIQGTPQEIATLLQNGEADIGIASERLSNDPQLVAFPWFRWHHSLLVPHDHPLTQISPLTLESIAKWPLITYRQGITGRSRIDDAFARKGLLADIVLSAQDSDVIKTYVALGLGIGLVAEQSSGEQEEENLIRLDTRHLFDANTVWLGLKRGQLQRNYVWRFLELCNAGLSVEDIKRQVMES”, the “soluble on expression in E. coli” value is reported as “soluble”.
